Each block holds one substance with its values, some of them ahead of it.
What was measured:
[1] = target: Pcdh15 EC1-11 PICA (cis-dimer); test: AFM force-clamp spectroscopy (single molecule); Cdh23 EC1-27-Fc dimer covalently on the cantilever, Pcdh15 EC1-11 PICA dimer covalently on the coverslip (sortagging); cantilever retracted 70 nm before clamping, clamping time 20 s; 25 mM HEPES, 100 mM NaCl, 50 mM KCl, 50 µM CaCl2; lifetimes from exponential fits of survival probability, Bell model fits
Cdh23 EC1-10 = test: AFM force-clamp spectroscopy (single molecule); Pcdh15 EC1-2 covalently on the cantilever, Cdh23 variants (EC1-5, EC1-10, EC1-21, EC1-27) covalently on the coverslip (sortagging, Mal-PEG2-NHS); contact 1-2 s, clamp 10 s; 25 mM HEPES, 100 mM NaCl, 50 mM KCl, 50 µM CaCl2; modified sliding-rebinding model fit with unfolding probabilities
Cdh23 EC1-21 = test: as above
Cdh23 EC1-5 = test: as above
[2] = target: full-length Cdh23 EC1-27 (27 domains); test: as above
[3] = target: Mouse Cdh23 EC1-2 (mouse) (UniProt Q99PF4); test: AFM force-clamp spectroscopy (single molecule); Pcdh15 EC1-2 (WT or R113G) covalently on the cantilever, Cdh23 EC1-2 covalently on the coverslip (sortagging, Mal-PEG5000-NHS); contact 1-2 s, clamp 10 s; 25 mM HEPES, 100 mM NaCl, 50 mM KCl, 50 µM CaCl2; modified sliding-rebinding model fit of lifetime against force
Sequence of Mouse Cdh23 EC1-2 (mouse) (Q99PF4 24-228): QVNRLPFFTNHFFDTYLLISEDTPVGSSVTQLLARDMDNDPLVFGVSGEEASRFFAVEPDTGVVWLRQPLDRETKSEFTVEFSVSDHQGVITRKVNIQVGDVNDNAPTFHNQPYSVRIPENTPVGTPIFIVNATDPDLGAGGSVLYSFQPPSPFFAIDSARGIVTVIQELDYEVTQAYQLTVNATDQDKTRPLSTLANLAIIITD

Substance: Cdh23 EC1-27 with the Fc region on its C-terminus (cis-dimer) (Fc fusion)
- intrinsic lifetime (τ0), low-force slip regime extrapolated to zero force [1]: 31.8 s
- lifetime in the ideal-bond region (τ0) [1]: 6.3 s
- lifetime of the short-lived component of the bi-exponential decay at high forces (>70 pN) [1]: 1 s
- τ0 of the Bell fit of the second slip region [1]: 8.4 s

- k+1 (intrinsic rate of reorganization, sliding-rebinding model) (Cdh23 EC1-10): 0.9 s⁻¹
- k+2 (intrinsic rate of rebinding, sliding-rebinding model) (Cdh23 EC1-10): 7.8 s⁻¹
- k-1 (intrinsic off-rate at zero force, single bond of the sliding-rebinding model) (Cdh23 EC1-10): 0.39 s⁻¹
- k+1 (intrinsic rate of reorganization, sliding-rebinding model) (Cdh23 EC1-21): 1.2 s⁻¹
- k+2 (intrinsic rate of rebinding, sliding-rebinding model) (Cdh23 EC1-21): 0.8 s⁻¹
- k-1 (intrinsic off-rate at zero force, single bond of the sliding-rebinding model) (Cdh23 EC1-21): 0.35 s⁻¹
- k+1 (intrinsic rate of reorganization, sliding-rebinding model) (Cdh23 EC1-5): 0.9 s⁻¹
- k+2 (intrinsic rate of rebinding, sliding-rebinding model) (Cdh23 EC1-5): 29.4 s⁻¹
- k-1 (intrinsic off-rate at zero force, single bond of the sliding-rebinding model) (Cdh23 EC1-5): 0.61 s⁻¹
- zero-force lifetime (Cdh23 EC1-5): 1.6 s
- k+1 (intrinsic rate of reorganization, sliding-rebinding model) [2]: 0.5 s⁻¹
- k+2 (intrinsic rate of rebinding, sliding-rebinding model) [2]: 0.5 s⁻¹
- k-1 (intrinsic off-rate at zero force, single bond of the sliding-rebinding model) [2]: 0.29 s⁻¹
- zero-force lifetime [2]: 3.4 s
Substance: Mouse Pcdh15 EC1-2 (from UniProt Q99PJ1 27-259) (domain or fragment)

- k+1 (intrinsic rate of reorganization, sliding-rebinding model) [3]: 0.6 s⁻¹
- k-1 (intrinsic off-rate at zero force, single bond of the sliding-rebinding model) [3]: 0.3 s⁻¹
Substance: Pcdh15 EC1-2 (R113G), Q99PJ1 27-259 (domain or fragment; other documents disagree on this pair)
